Data reported in patent US20250002588A1 (DIAGONAL THERAPEUTICS, published 2025).
Substitutions are numbered along the chain they refer to.

B1: DGL654 (bispecific antibody)
chain 1: EVQLLESGGGLVQPGGSLRLSCAASGFTFSDYYMNWIRQAPGKGLEWVSSISGGSTYYADSVKGRFTISRDNSENTLYLQMNSLRAEDTAVYYCARDFGVAGWFGQFGMDVWGQGTLVTVSSGGGGSGGGGSGGGGSQSVLTQPPSASGTPGQRVTISCTGSSSNIGAGYDVHWYQQLPGTAPKLLIYRSNQRPSGVPDRFSGSKSGTSASLAISGLRSEDEADYYCSSYAGNYNLVFGGGTKLTVLDKTHTCPPCPAPEAAGAPSVFLFPPKPKDTLMISRTPEVTCVVVDVSHEDPEVKFNWYVDGVEVHNAKTKPREEQYNSTYRVVSVLTVLHQDWLNGKEYKCKVSNKALPAPIEKTISKAKGQPREPQVCTLPPSRDELTKNQVSLSCAVKGFYPSDIAVEWESNGQPENNYKTTPPVLDSDGSFFLVSKLTVDKSRWQQGNVFSCSVMHEALHNHYTQKSLSLSPGWSHPQFEK
chain 2: not shown
B2: DGL860 (bispecific antibody)
chain 1: not shown
chain 2: B1 chain 1
B3: DGL865 (bispecific antibody)
chain 1: not shown
chain 2: B1 chain 1 with Y32S, N35S, W103Y, F107Y
B4: DGL732 (bispecific antibody)
chain 1: B1 chain 1 with Y33W, N35T, V62R, F107Y
chain 2: not shown
B5: DGL861 (bispecific antibody)
chain 1: not shown
chain 2: B1 chain 1
B6: DGL864 (bispecific antibody)
chain 1: not shown
chain 2: B1 chain 1 with Y32S, N35S, W103Y, F107Y
B7: DGL867 (bispecific antibody)
chain 1: not shown
chain 2: B1 chain 1 with Q106Y, F107Y
B8: DGL866 (bispecific antibody)
chain 1: not shown
chain 2: B1 chain 1 with Q106Y, F107Y
B9: DGL863 (bispecific antibody)
chain 1: not shown
chain 2: B1 chain 1 with Y32S, N35S, W103Y, F107Y
B10: DGL868 (bispecific antibody)
chain 1: not shown
chain 2: B1 chain 1 with Q106Y, F107Y
B11: DGL734 (bispecific antibody)
chain 1: B1 chain 1 with Y33W, N35T, S55T, V62R, F98Y, F107Y
chain 2: not shown
B12: DGL656 (bispecific antibody)
chain 1: B1 chain 1 with Q106Y, F107Y
chain 2: not shown
B13: DGL733 (bispecific antibody)
chain 1: B1 chain 1 with N35T, S55T, V62R, F107Y
chain 2: not shown
B14: DGL862 (bispecific antibody)
chain 1: not shown
chain 2: B1 chain 1
B15: DGL735 (bispecific antibody)
chain 1: B1 chain 1 with Y33W, N35T, S55T, V62R, A101S, F107Y
chain 2: not shown
B16: DGL655 (bispecific antibody)
chain 1: B1 chain 1 with Y32S, N35S, W103Y, F107Y
chain 2: not shown
B17: DGL631 (bispecific antibody)
chain 1: not shown
chain 2: EVQLLESGGGLVQPGGSLRLSCAASGFTFSNAWMNWVRQAPGKGLEWVSSISSSSSYIYYADSVKGRFTISRDNSKNTLYLQMNSLRAEDTAVYYCARAVAAGGMFWGLDQWGQGTLVTVTSSGGGGSGGGGSGGGGSQSVLTQPPSASGTPGQRVTISCSGSRSNIGSNSVHWYQQLPGTAPKLLIYGNSNRPSGVPDRFSGSKSGTSASLAISGLRSEDEADYYCQSYDSSLNDHVVFGGGTKLTVLDKTHTCPPCPAPEAAGAPSVFLFPPKPKDTLMISRTPEVTCVVVDVSHEDPEVKFNWYVDGVEVHNAKTKPREEQYNSTYRVVSVLTVLHQDWLNGKEYKCKVSNKALPAPIEKTISKAKGQPREPQVCTLPPSRDELTKNQVSLSCAVKGFYPSDIAVEWESNGQPENNYKTTPPVLDSDGSFFLVSKLTVDKSRWQQGNVFSCSVMHEALHNHYTQKSLSLSPGWSHPQFEK
B18: DGL622 (bispecific antibody)
chain 1: not shown
chain 2: B17 chain 2
B19: DGL621 (bispecific antibody)
chain 1: not shown
chain 2: B17 chain 2
B20: DGL632 (bispecific antibody)
chain 1: not shown
chain 2: B17 chain 2
B21: DGL630 (bispecific antibody)
chain 1: not shown
chain 2: B17 chain 2
B22: DGL623 (bispecific antibody)
chain 1: not shown
chain 2: B17 chain 2
B23: DGL639 (bispecific antibody)
chain 1: EVQLLESGGGLVQPGGSLRLSCAASGFTFSDYYMTWIRQAPGKGLEWVSSISGGSTYYADSRKGRFTISRDNSENTLYLQMNSLRAEDTAVYYCARNVTSGGYFGSFGLDLWGQGTLVTVSSGGGGSGGGGSGGGGSQSVLTQPPSASGTPGQRVTISCTGSSSNIGAGYDVHWYQQLPGTAPKLLIYRSNQRPSGVPDRFSGSKSGTSASLAISGLRSEDEADYYCSSYAGNYNLVFGGGTKLTVLDKTHTCPPCPAPEAAGAPSVFLFPPKPKDTLMISRTPEVTCVVVDVSHEDPEVKFNWYVDGVEVHNAKTKPREEQYNSTYRVVSVLTVLHQDWLNGKEYKCKVSNKALPAPIEKTISKAKGQPREPQVCTLPPSRDELTKNQVSLSCAVKGFYPSDIAVEWESNGQPENNYKTTPPVLDSDGSFFLVSKLTVDKSRWQQGNVFSCSVMHEALHNHYTQKSLSLSPGWSHPQFEK
chain 2: not shown
B24: DGL731 (bispecific antibody)
chain 1: B1 chain 1 with N35T, V62R, A101S, F107Y
chain 2: not shown
B25: DGL730 (bispecific antibody)
chain 1: B1 chain 1 with N35T, V62R, F98Y, F107Y
chain 2: not shown
B26: DGL652 (bispecific antibody)
chain 1: not shown
chain 2: B1 chain 1 with N35T, V62R, F107Y
B27: DGL653 (bispecific antibody)
chain 1: not shown
chain 2: B1 chain 1 with N35T, V62R, F107Y
B28: DGL736 (bispecific antibody)
chain 1: not shown
chain 2: B1 chain 1 with N35T, V62R, F107Y
B29: DGL737 (bispecific antibody)
chain 1: not shown
chain 2: B1 chain 1 with N35T, V62R, F107Y
B30: DGL651 (bispecific antibody)
chain 1: not shown
chain 2: B1 chain 1 with N35T, V62R, F107Y
B31: DGL638 (bispecific antibody)
chain 1: B23 chain 1 with V98E, T99V, F104Y, S106E, D110S
chain 2: not shown
B32: DGL636 (bispecific antibody)
chain 1: B23 chain 1 with N97W, V98E, G101S, Y103G, F107G, D110S, L111H
chain 2: not shown
B33: DGL637 (bispecific antibody)
chain 1: B23 chain 1 with N97L, V98T, T99V, S100D, Y103G, F104Y, F107G
chain 2: not shown

molecular target: ALK-1/BMPR-2 receptor pair of the PathHunter U2Os dimerization cells (DiscoverX 93-0962C3) (UniProt P37023 22-503; Q13873 27-1038); experiment: cell-based or functional assay
Sequence (P37023 22-503, chain 1 of 2): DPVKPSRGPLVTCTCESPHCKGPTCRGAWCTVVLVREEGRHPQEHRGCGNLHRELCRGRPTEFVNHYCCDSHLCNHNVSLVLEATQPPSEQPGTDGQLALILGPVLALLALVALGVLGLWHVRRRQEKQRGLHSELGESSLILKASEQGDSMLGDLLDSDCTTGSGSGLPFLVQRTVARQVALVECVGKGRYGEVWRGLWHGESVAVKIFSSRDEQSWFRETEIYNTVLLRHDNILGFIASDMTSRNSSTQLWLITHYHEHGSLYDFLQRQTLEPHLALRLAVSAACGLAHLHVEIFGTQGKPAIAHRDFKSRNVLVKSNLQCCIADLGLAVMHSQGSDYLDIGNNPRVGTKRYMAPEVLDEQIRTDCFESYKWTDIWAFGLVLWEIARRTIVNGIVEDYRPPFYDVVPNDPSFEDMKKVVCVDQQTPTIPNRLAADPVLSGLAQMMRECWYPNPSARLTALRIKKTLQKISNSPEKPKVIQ
Sequence (Q13873 27-1038, chain 2 of 2): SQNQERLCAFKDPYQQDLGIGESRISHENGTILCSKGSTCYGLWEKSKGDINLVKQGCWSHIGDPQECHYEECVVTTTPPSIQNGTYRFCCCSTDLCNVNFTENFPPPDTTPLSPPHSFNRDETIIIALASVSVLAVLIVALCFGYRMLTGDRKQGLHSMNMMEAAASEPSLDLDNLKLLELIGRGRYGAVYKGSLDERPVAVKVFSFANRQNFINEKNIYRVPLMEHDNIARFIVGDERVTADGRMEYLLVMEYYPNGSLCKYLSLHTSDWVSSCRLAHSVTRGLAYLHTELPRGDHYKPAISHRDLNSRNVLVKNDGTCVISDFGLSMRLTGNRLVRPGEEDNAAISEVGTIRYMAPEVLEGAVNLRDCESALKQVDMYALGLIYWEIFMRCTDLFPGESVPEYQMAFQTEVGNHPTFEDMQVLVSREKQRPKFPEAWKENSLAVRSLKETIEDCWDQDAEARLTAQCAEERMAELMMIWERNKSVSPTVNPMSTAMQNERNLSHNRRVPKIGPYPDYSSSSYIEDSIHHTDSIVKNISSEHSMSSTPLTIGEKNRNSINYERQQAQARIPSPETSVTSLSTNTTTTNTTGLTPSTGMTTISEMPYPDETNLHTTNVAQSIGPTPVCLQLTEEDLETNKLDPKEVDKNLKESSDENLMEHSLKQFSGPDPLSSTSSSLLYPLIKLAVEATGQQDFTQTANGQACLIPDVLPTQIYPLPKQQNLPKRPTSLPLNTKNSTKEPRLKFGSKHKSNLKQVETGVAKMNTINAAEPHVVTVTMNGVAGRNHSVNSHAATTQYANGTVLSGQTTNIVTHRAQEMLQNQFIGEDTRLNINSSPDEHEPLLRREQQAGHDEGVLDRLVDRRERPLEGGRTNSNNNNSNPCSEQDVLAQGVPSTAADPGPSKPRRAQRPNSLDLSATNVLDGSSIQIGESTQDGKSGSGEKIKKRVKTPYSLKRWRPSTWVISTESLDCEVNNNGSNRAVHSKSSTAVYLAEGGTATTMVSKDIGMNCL

% Emax BMP9 [%] | Emax (RLU) | Binder
76 | 1.87e+06 | B1
79 | 2.01e+06 | B2
30 | 755000 | B3
54 | 845000 | B4
81 | 2.08e+06 | B5
22 | 553000 | B6
58 | 1.48e+06 | B7
45 | 1.15e+06 | B8
24 | 604000 | B9
67 | 1.71e+06 | B10
14 | 217000 | B11
55 | 1.36e+06 | B12
106 | 1.65e+06 | B13
83 | 2.13e+06 | B14
68 | 1.06e+06 | B15
18 | 437000 | B16
13 | 470000 | B17

% Emax BMP9 [%] | Emax (RLU) | Binder
25 | 936000 | B18
30 | 1.09e+06 | B19
4 | 130000 | B20
5 | 168000 | B21
30 | 1.11e+06 | B22
41 | 752000 | B23
100 | 1.56e+06 | B24
22 | 342000 | B25
60 | 1.48e+06 | B26
58 | 1.43e+06 | B27
73 | 1.13e+06 | B28
77 | 1.2e+06 | B29
72 | 1.76e+07 | B30
80 | 1.47e+06 | B31
20 | 362000 | B32
21 | 382000 | B33

molecular target: human ALK1 protein (Sino Biological, #10066-H08H) (human, UniProt P37023 22-118); experiment: ELISA, coated human ALK1
Sequence (P37023 22-118 limits assumed): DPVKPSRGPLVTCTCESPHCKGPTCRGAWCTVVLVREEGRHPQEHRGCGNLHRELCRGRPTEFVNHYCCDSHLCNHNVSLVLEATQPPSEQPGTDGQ
Method: These binders were then tested using an ELISA assay. High binding plates (Corning, 9018) were coated with either 2 μg/ml of human BMPRII protein (Sino Biological, #10551-H08H) or 2 μg/ml of human ALK1 protein (Sino Biological, #10066-H08H) overnight at 4C. The plates were then washed three times with wash buffer (R&D Systems, WA126). […] The plates were then washed three times with wash buffer and DGL antibodies or controls, which were diluted with PBS and 0.1% BSA. The antibodies were incubated for one hour at room temperature and then the plates were washed three times with wash buffer. The plates were then incubated with mouse anti-human IgG Fc secondary—HRP (diluted with PBS/0.1% BSA); 100 ul per well at 2 μg/ml and incubated at room temperature for one hour. The plate was washed three times in wash buffer and then 100 ul TMB (R&D Systems, DY9998B, substrate reagent pack). After the wells turn blue, 50 ul of stop solution (R&D Systems, DY994) was added to each well and the absorbance of the plate was read at 450 nm. results can be found in Table 8.

Abs450 1 nM | Abs450 10 nM | Abs450 100 nM | Binder
0.07 | 0.19 | 0.7 | B17
0.15 | 0.75 | 1.58 | B18
0.17 | 0.95 | 1.58 | B19
0.06 | 0.05 | 0.06 | B20
0.07 | 0.07 | 0.08 | B21
0.14 | 0.61 | 1.43 | B22
0.09 | 0.46 | 1.39 | B23
0.05 | 0.22 | 1.02 | B31
0.11 | 0.56 | 1.45 | B32
0.16 | 0.77 | 1.48 | B33
